Measured values published in patent publication US20080306243A1 (NEC, published 2008).

B1: SEQ ID NO 5 (peptide)
peptide: QVFQVSHSF
notes: Synthetic 9-mer peptide of PSA (GenBank M26663)
B2: SEQ ID NO 8 (peptide)
peptide: GVLQGITSW
notes: as for B1
B3: SEQ ID NO 6 (peptide)
peptide: ILSRIVGGW
notes: as for B1
B4: SEQ ID NO 9 (peptide)
peptide: VLVHPQWVL
notes: as for B1
B5: SEQ ID NO 7 (peptide)
peptide: VHPQKVTKF
notes: as for B1
B6: SEQ ID NO 3 (peptide)
peptide: ILLGRHSLF
notes: as for B1

Each binder was assayed against T1, HLA-A2402 molecule, which is a product of the HLA-A*2402 gene (human) (assay: flow cytometry; reassociation of peptide, added β2m and HLA-A2402 on acid-stripped C1R-A24 cells, stained with mAb 17A12).
T1 construct: MHC class I molecule on C1R-A24 cells, emptied by acid and reassociated with added β2m and the test peptide; also called HLA-A24 molecule; human HLA-A2402 molecule
Method: After neutralization, purified β2m was added to C1R-A24 cells, the obtained product was added to serial dilutions of a peptide, and incubated on ice for 4 hours.
Subsequently, the MHC-pep count per C1R-A24 cell (proportional to the strength of fluorescence of the above-mentioned fluorescent antibody) was quantitatively measured using an FACScan fluorescence-activated cell sorter (Becton Dickinson Biosciences). A binding dissociation constant Kd value between the HLA-A24 molecule and the peptide was calculated from the average strength of fluorescence per cell by a published method (Udaka et al., Immunogenetics, 51, 816-828, 2000).
In the case of B1, the “-log Kd” value is reported as 7.32 -log Kd. B2 was tested, and the “-log Kd” value was 5.38 -log Kd. With B3 the “-log Kd” value was 7.21 -log Kd. B4 was tested, and the “-log Kd” value was 6.34 -log Kd. For B5, the “-log Kd” value was 6.65 -log Kd. For B6, the “-log Kd” value was 7.47 -log Kd.
